Key:
[1] = system: GFP-14-3-3β and its binding proteins; assay: GFP-14-3-3β co-IP with LC-MS/MS label-free quantification, untreated versus PP1c-treated; parameters: species or system human
GFP-14-3-3β = GFP-14-3-3β co-IP with LC-MS/MS, untreated GFP-14-3-3β versus GFP control (14-3-3 interactome); assay type: binding, human
[2] = PP1 vs untreated, LFQ intensities, replicates 1-3
[3] = untreated vs GFP, LFQ intensities, replicates 1-3

| Molecule | Difference (log2), PP1 vs untreated [1, 2] | Difference (log2), PP1 vs untreated ([1]; log2 difference, pairwise comparison PP1 vs untreated, label-free quantification, 3 replicates each) | Difference (log2), untreated vs GFP (GFP-14-3-3β; [3]) | Difference (log2), untreated vs GFP (GFP-14-3-3β; log2 difference, pairwise comparison untreated vs GFP, label-free quantification, 3 replicates each) |
| --- | --- | --- | --- | --- |
| ACIN1 (protein, UniProt Q9UKV3 1-1341, looked up) Apoptotic chromatin …: MWRRKHPRTSGGTRGVLSGNRGVEYGSGRGHLGTFEGRWRKLPKMPEAVGTDPSTSRKMAELEEVTLDGKPLQALRVTDLKAALEQRGLAKSGQKSALVKRLKGALMLENLQKHSTPHAAFQPNSQIGEEMSQNSFIKQYLEKQQELLRQRLEREAREAAELEEASAESEDEMIHPEGVASLLPPDFQSSLERPELELSRHSPRKSSSISEEKGDSDDEKPRKGERRSSRVRQARAAKLSEGSQPAEEEEDQETPSRNLRVRADRNLKTEEEEEEEEEEEEDDEEEEGDDEGQKSREAPILKEFKEEGEEIPRVKPEEMMDERPKTRSQEQEVLERGGRFTRSQEEARKSHLARQQQEKEMKTTSPLEEEEREIKSSQGLKEKSKSPSPPRLTEDRKKASLVALPEQTASEEETPPPLLTKEASSPPPHPQLHSEEEIEPMEGPAPAVLIQLSPPNTDADTRELLVSQHTVQLVGGLSPLSSPSDTKAESPAEKVPEESVLPLVQKSTLADYSAQKDLEPESDRSAQPLPLKIEELALAKGITEECLKQPSLEQKEGRRASHTLLPSHRLKQSADSSSSRSSSSSSSSSRSRSRSPDSSGSRSHSPLRSKQRDVAQARTHANPRGRPKMGSRSTSESRSRSRSRSRSASSNSRKSLSPGVSRDSSTSYTETKDPSSGQEVATPPVPQLQVCEPKERTSTSSSSVQARRLSQPESAEKHVTQRLQPERGSPKKCEAEEAEPPAATQPQTSETQTSHLPESERIHHTVEEKEEVTMDTSENRPENDVPEPPMPIADQVSNDDRPEGSVEDEEKKESSLPKSFKRKISVVSATKGVPAGNSDTEGGQPGRKRRWGASTATTQKKPSISITTESLKSLIPDIKPLAGQEAVVDLHADDSRISEDETERNGDDGTHDKGLKICRTVTQVVPAEGQENGQREEEEEEKEPEAEPPVPPQVSVEVALPPPAEHEVKKVTLGDTLTRRSISQQKSGVSITIDDPVRTAQVPSPPRGKISNIVHISNLVRPFTLGQLKELLGRTGTLVEEAFWIDKIKSHCFVTYSTVEEAVATRTALHGVKWPQSNPKFLCADYAEQDELDYHRGLLVDRPSETKTEEQGIPRPLHPPPPPPVQPPQHPRAEQREQERAVREQWAEREREMERRERTRSEREWDRDKVREGPRSRSRSRDRRRKERAKSKEKKSEKKEKAQEEPPAKLLDDLFRKTKAAPCIYWLPLTDSQIVQKEAERAERAKEREKRRKEQEEEEQKEREKEAERERNRQLEREKRREHSRERDRERERERERDRGDRDRDRERDRERGRERDRRDTKRHSRSRSRSTPVRDRGGRR | -1.001 log2 |  | 1.747 log2 |  |
| GIGYF2 (protein, UniProt Q6Y7W6 2-1299, looked up) GRB10-interacting GYF protein …: AAETQTLNFGPEWLRALSSGGSITSPPLSPALPKYKLADYRYGREEMLALFLKDNKIPSDLLDKEFLPILQEEPLPPLALVPFTEEEQRNFSMSVNSAAVLRLTGRGGGGTVVGAPRGRSSSRGRGRGRGECGFYQRSFDEVEGVFGRGGGREMHRSQSWEERGDRRFEKPGRKDVGRPNFEEGGPTSVGRKHEFIRSESENWRIFREEQNGEDEDGGWRLAGSRRDGERWRPHSPDGPRSAGWREHMERRRRFEFDFRDRDDERGYRRVRSGSGSIDDDRDSLPEWCLEDAEEEMGTFDSSGAFLSLKKVQKEPIPEEQEMDFRPVDEGEECSDSEGSHNEEAKEPDKTNKKEGEKTDRVGVEASEETPQTSSSSARPGTPSDHQSQEASQFERKDEPKTEQTEKAEEETRMENSLPAKVPSRGDEMVADVQQPLSQIPSDTASPLLILPPPVPNPSPTLRPVETPVVGAPGMGSVSTEPDDEEGLKHLEQQAEKMVAYLQDSALDDERLASKLQEHRAKGVSIPLMHEAMQKWYYKDPQGEIQGPFNNQEMAEWFQAGYFTMSLLVKRACDESFQPLGDIMKMWGRVPFSPGPAPPPHMGELDQERLTRQQELTALYQMQHLQYQQFLIQQQYAQVLAQQQKAALSSQQQQQLALLLQQFQTLKMRISDQNIIPSVTRSVSVPDTGSIWELQPTASQPTVWEGGSVWDLPLDTTTPGPALEQLQQLEKAKAAKLEQERREAEMRAKREEEERKRQEELRRQQEEILRRQQEEERKRREEEELARRKQEEALRRQREQEIALRRQREEEERQQQEEALRRLEERRREEEERRKQEELLRKQEEEAAKWAREEEEAQRRLEENRLRMEEEAARLRHEEEERKRKELEVQRQKELMRQRQQQQEALRRLQQQQQQQQLAQMKLPSSSTWGQQSNTTACQSQATLSLAEIQKLEEERERQLREEQRRQQRELMKALQQQQQQQQQKLSGWGNVSKPSGTTKSLLEIQQEEARQMQKQQQQQQQHQQPNRARNNTHSNLHTSIGNSVWGSINTGPPNQWASDLVSSIWSNADTKNSNMGFWDDAVKEVGPRNSTNKNKNNASLSKSVGVSNRQNKKVEEEEKLLKLFQGVNKAQDGFTQWCEQMLHALNTANNLDVPTFVSFLKEVESPYEVHDYIRAYLGDTSEAKEFAKQFLERRAKQKANQQRQQQQLPQQQQQQPPQQPPQQPQQQDSVWGMNHSTLHSVFQTNQSNNQQSNFEAVQSGKKKKKQKMVRADPSLLGFSVNASSERLNMGEIETLDDY | -0.9344 log2 |  | 2.445 log2 |  |
| CENPV (protein, UniProt Q7Z7K6 1-275, looked up) Centromere protein V: MRRSRSSAAAKLRGQKRSGASGASAAPAASAAAALAPSATRTRRSASQAGSKSQAVEKPPSEKPRLRRSSPRAQEEGPGEPPPPELALLPPPPPPPPTPATPTSSASNLDLGEQRERWETFQKRQKLTSEGAAKLLLDTFEYQGLVKHTGGCHCGAVRFEVWASADLHIFDCNCSICKKKQNRHFIVPASRFKLLKGAEHITTYTFNTHKAQHTFCKRCGVQSFYTPRSNPGGFGIAPHCLDEGTVRSMVTEEFNGSDWEKAMKEHKTIKNMSKE | -0.9888 log2 |  | 2.895 log2 |  |
| EIF2A (protein, UniProt Q9BY44 1-585, looked up) Eukaryotic translation …: MAPSTPLLTVRGSEGLYMVNGPPHFTESTVFPRESGKNCKVCIFSKDGTLFAWGNGEKVNIISVTNKGLLHSFDLLKAVCLEFSPKNTVLATWQPYTTSKDGTAGIPNLQLYDVKTGTCLKSFIQKKMQNWCPSWSEDETLCARNVNNEVHFFENNNFNTIANKLHLQKINDFVLSPGPQPYKVAVYVPGSKGAPSFVRLYQYPNFAGPHAALANKSFFKADKVTMLWNKKATAVLVIASTDVDKTGASYYGEQTLHYIATNGESAVVQLPKNGPIYDVVWNSSSTEFCAVYGFMPAKATIFNLKCDPVFDFGTGPRNAAYYSPHGHILVLAGFGNLRGQMEVWDVKNYKLISKPVASDSTYFAWCPDGEHILTATCAPRLRVNNGYKIWHYTGSILHKYDVPSNAELWQVSWQPFLDGIFPAKTITYQAVPSEVPNEEPKVATAYRPPALRNKPITNSKLHEEEPPQNMKPQSGNDKPLSKTALKNQRKHEAKKAAKQEARSDKSPDLAPTPAPQSTPRNTVSQSISGDPEIDKKIKNLKKKLKAIEQLKEQAATGKQLEKNQLEKIQKETALLQELEDLELGI |  | 1.627 |  | -1.244 |

Now from value to molecule, other results behind:

| Difference (log2), PP1 vs untreated [1, 2] | Difference (log2), PP1 vs untreated ([1]; log2 difference, pairwise comparison PP1 vs untreated, label-free quantification, 3 replicates each) | Molecule | Difference (log2), untreated vs GFP (GFP-14-3-3β; [3]) | Difference (log2), untreated vs GFP (GFP-14-3-3β; log2 difference, pairwise comparison untreated vs GFP, label-free quantification, 3 replicates each) |
| --- | --- | --- | --- | --- |
| -0.9629 log2 |  | TJP2 (protein, UniProt Q9UDY2 1-1190, looked up) Tight junction protein 2: MPVRGDRGFPPRRELSGWLRAPGMEELIWEQYTVTLQKDSKRGFGIAVSGGRDNPHFENGETSIVISDVLPGGPADGLLQENDRVVMVNGTPMEDVLHSFAVQQLRKSGKVAAIVVKRPRKVQVAALQASPPLDQDDRAFEVMDEFDGRSFRSGYSERSRLNSHGGRSRSWEDSPERGRPHERARSRERDLSRDRSRGRSLERGLDQDHARTRDRSRGRSLERGLDHDFGPSRDRDRDRSRGRSIDQDYERAYHRAYDPDYERAYSPEYRRGARHDARSRGPRSRSREHPHSRSPSPEPRGRPGPIGVLLMKSRANEEYGLRLGSQIFVKEMTRTGLATKDGNLHEGDIILKINGTVTENMSLTDARKLIEKSRGKLQLVVLRDSQQTLINIPSLNDSDSEIEDISEIESNRSFSPEERRHQYSDYDYHSSSEKLKERPSSREDTPSRLSRMGATPTPFKSTGDIAGTVVPETNKEPRYQEDPPAPQPKAAPRTFLRPSPEDEAIYGPNTKMVRFKKGDSVGLRLAGGNDVGIFVAGIQEGTSAEQEGLQEGDQILKVNTQDFRGLVREDAVLYLLEIPKGEMVTILAQSRADVYRDILACGRGDSFFIRSHFECEKETPQSLAFTRGEVFRVVDTLYDGKLGNWLAVRIGNELEKGLIPNKSRAEQMASVQNAQRDNAGDRADFWRMRGQRSGVKKNLRKSREDLTAVVSVSTKFPAYERVLLREAGFKRPVVLFGPIADIAMEKLANELPDWFQTAKTEPKDAGSEKSTGVVRLNTVRQIIEQDKHALLDVTPKAVDLLNYTQWFPIVIFFNPDSRQGVKTMRQRLNPTSNKSSRKLFDQANKLKKTCAHLFTATINLNSANDSWFGSLKDTIQHQQGEAVWVSEGKMEGMDDDPEDRMSYLTAMGADYLSCDSRLISDFEDTDGEGGAYTDNELDEPAEEPLVSSITRSSEPVQHEESIRKPSPEPRAQMRRAASSDQLRDNSPPPAFKPEPPKAKTQNKEESYDFSKSYEYKSNPSAVAGNETPGASTKGYPPPVAAKPTFGRSILKPSTPIPPQEGEEVGESSEEQDNAPKSVLGKVKIFEKMDHKARLQRMQELQEAQNARIEIAQKHPDIYAVPIKTHKPDPGTPQHTSSRPPEPQKAPSRPYQDTRGSYGSDAEEEEYRQQLSEHSKRGYYGQSARYRDTEL | 5.699 log2 |  |
| -1.028 log2 |  | ZC3H18 (protein, UniProt Q86VM9 1-953, looked up) Zinc finger CCCH …: MDVAESPERDPHSPEDEEQPQGLSDDDILRDSGSDQDLDGAGVRASDLEDEESAARGPSQEEEDNHSDEEDRASEPKSQDQDSEVNELSRGPTSSPCEEEGDEGEEDRTSDLRDEASSVTRELDEHELDYDEEVPEEPAPAVQEDEAEKAGAEDDEEKGEGTPREEGKAGVQSVGEKESLEAAKEKKKEDDDGEIDDGEIDDDDLEEGEVKDPSDRKVRPRPTCRFFMKGNCTWGMNCRFIHPGVNDKGNYSLITKADPFPPNGAPPLGPHPLMPANPWGGPVVDEILPPPPPEPPTESAWERGLRHAKEVLKKATIRKEQEPDFEEKRFTVTIGEDEREFDKENEVFRDWNSRIPRDVRDTVLEPYADPYYDYEIERFWRGGQYENFRVQYTETEPYHNYRERERERERENRQRERERERERDRERERRQRERERERERERDKERQRRKEEWERERAKRDEKDRQHRDRDREKEREKEKGKPKPRSPQPPSRQAEPPKKEAATTGPQVKRADEWKDPWRRSKSPKKKLGVSVSPSRARRRRKTSASSASASNSSRSSSRSSSYSGSGSSRSRSRSSSYSSYSSRSSRHSSFSGSRSRSRSFSSSPSPSPTPSPHRPSIRTKGEPAPPPGKAGEKSVKKPAPPPAPPQATKTTAPVPEPTKPGDPREARRKERPARTPPRRRTLSGSGSGSGSSYSGSSSRSRSLSVSSVSSVSSATSSSSSAHSVDSEDMYADLASPVSSASSRSPAPAQTRKEKGKSKKEDGVKEEKRKRDSSTQPPKSAKPPAGGKSSQQPSTPQQAPPGQPQQGTFVAHKEIKLTLLNKAADKGSRKRYEPSDKDRQSPPPAKRPNTSPDRGSRDRKSGGRLGSPKPERQRGQNSKAPAAPADRKRQLSPQSKSSSKVTSVPGKASDPGAASTKSGKASTLSRREELLKQLKAVEDAIARKRAKIPGKA | 1.571 log2 |  |
